Data from ChEMBL document CHEMBL2074310, “ATP-dependent organic anion transport system in normal and TR- rat liver canalicular membranes” (Am J Physiol, 1992).

Substrate: O=C1OC(c2ccc(O)c(S(=O)(=O)O)c2)(c2ccc(O)c(S(=O)(=O)O)c2)c2c(Br)c(Br)c(Br)c(Br)c21
Experiment: TP_TRANSPORTER: uptake in bile canalicular membrane vesicles from Wistar rat
Type: functional, cell membranes, Bile canalicular membrane vesicle

B1: ATP-binding cassette sub-family C member 2 (Rattus norvegicus) (protein)
chain: MDKFCNSTFWDLSLLESPEADLPLCFEQTVLVWIPLGFLWLLAPWQLYSVYRSRTKRSSITKFYLAKQVFVVFLLILAAIDLSLALTEDTGQATVPPVRYTNPILYLCTWLLVLAVQHSRQWCVRKNSWFLSLFWILSVLCGVFQFQTLIRALLKDSKSNMAYSYLFFVSYGFQIVLLILTAFSGPSDSTQTPSVTASFLSSITFSWYDRTVLKGYKHPLTLEDVWDIDEGFKTRSVTSKFEAAMTKDLQKARQAFQRRLQKSQRKPEATLHGLNKKQSQSQDVLVLEEAKKKSEKTTKDYPKSWLIKSLFKTFHVVILKSFILKLIHDLLVFLNPQLLKLLIGFVKSSNSYVWFGYICAILMFAVTLIQSFCLQSYFQHCFVLGMCVRTTVMSSIYKKALTLSNLARKQYTIGETVNLMSVDSQKLMDATNYMQLVWSSVIQITLSIFFLWRELGPSILAGVGVMVLLIPVNGVLATKIRNIQVQNMKNKDKRLKIMNEILSGIKILKYFAWEPSFQEQVQGIRKKELKNLLRFGQLQSLLIFILQITPILVSVVTFSVYVLVDSANVLNAEKAFTSITLFNILRFPLSMLPMVTSSILQASVSVDRLERYLGGDDLDTSAIRRVSNFDKAVKFSEASFTWDPDLEATIQDVNLDIKPGQLVAVVGTVGSGKSSLVSAMLGEMENVHGHITIQGSTAYVPQQSWIQNGTIKDNILFGSEYNEKKYQQVLKACALLPDLEILPGGDMAEIGEKGINLSGGQKQRVSLARAAYQDADIYILDDPLSAVDAHVGKHIFNKVVGPNGLLAGKTRIFVTHGIHFLPQVDEIVVLGKGTILEKGSYRDLLDKKGVFARNWKTFMKHSGPEGEATVNNDSEAEDDDDGLIPTMEEIPEDAASLAMRRENSLRRTLSRSSRSSSRRGKSLKNSLKIKNVNVLKEKEKEVEGQKLIKKEFVETGKVKFSIYLKYLQAVGWWSILFIILFYGLNNVAFIGSNLWLSAWTSDSDNLNGTNNSSSHRDMRIGVFGALGLAQGICLLISTLWSIYACRNASKALHGQLLTNILRAPMRFFDTTPTGRIVNRFSGDISTVDDLLPQTLRSWMMCFFGIAGTLVMICMATPVFAIIIIPLSILYISVQVFYVATSRQLRRLDSVTKSPIYSHFSETVTGLPIIRAFEHQQRFLAWNEKQIDINQKCVFSWITSNRWLAIRLELVGNLVVFCSALLLVIYRKTLTGDVVGFVLSNALNITQTLNWLVRMTSEAETNIVAVERISEYINVENEAPWVTDKRPPADWPRHGEIQFNNYQVRYRPELDLVLKGITCNIKSGEKVGVVGRTGAGKSSLTNCLFRILESAGGQIIIDGIDVASIGLHDLRERLTIIPQDPILFSGSLRMNLDPFNKYSDEEVWRALELAHLRSFVSGLQLGLLSEVTEGGDNLSIGQRQLLCLGRAVLRKSKILVLDEATAAVDLETDSLIQTTIRKEFSQCTVITIAHRLHTIMDSDKIMVLDNGKIVEYGSPEELLSNRGSFYLMAKEAGIENVNHTEL
Km: 31 µM
